Measurements published in patent US20240360226A1 (AstraZeneca / MedImmune, published 2024).

T1: HER4 (Homo sapiens (Human), UniProt Q15303 26-651)
T1 construct: also called EGFR HER family protein HER4
T1 sequence: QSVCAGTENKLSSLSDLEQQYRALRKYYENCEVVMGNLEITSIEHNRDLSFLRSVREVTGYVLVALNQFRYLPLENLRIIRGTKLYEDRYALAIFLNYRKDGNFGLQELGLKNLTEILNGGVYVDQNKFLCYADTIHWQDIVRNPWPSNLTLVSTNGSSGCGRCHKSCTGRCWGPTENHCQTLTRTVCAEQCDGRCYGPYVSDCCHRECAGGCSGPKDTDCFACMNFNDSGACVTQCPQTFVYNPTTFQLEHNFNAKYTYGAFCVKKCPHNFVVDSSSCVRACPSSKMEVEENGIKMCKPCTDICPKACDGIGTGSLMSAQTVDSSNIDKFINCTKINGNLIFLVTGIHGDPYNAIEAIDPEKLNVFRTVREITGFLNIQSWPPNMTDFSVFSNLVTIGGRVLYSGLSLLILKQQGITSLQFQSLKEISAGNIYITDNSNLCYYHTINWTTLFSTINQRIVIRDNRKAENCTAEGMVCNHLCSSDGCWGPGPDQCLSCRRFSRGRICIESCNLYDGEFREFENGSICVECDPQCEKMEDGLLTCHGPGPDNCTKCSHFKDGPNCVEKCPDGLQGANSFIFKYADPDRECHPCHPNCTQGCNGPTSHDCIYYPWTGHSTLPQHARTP

B1: B09-57 IgG (antibody, V domains shown)
VH: QVQLVQSGAEVKKPGASVKVSCKASGYTFTDYYIHWVRQATGQGLEWMGWMNPNSGNTGYAQKFQGRVTMTRDTSISTAYMELSSLRSEDTAVYYCARGQGYTHSWGQGTMVTVSS
VL: DIQMTQSPSTLSASVGDRVTITCRASEGIYHWLAWYQQKPGKAPKLLIYKASSLASGVPSRFSGSGSGTEFTLTISSLQPDDFATYYCQQYSNYPPTFGGGTKLEIK
notes: also called B09-GL; anti-c-Met antibody clone B09-GL
B2: RAA22/B09-57 DuetMab (bispecific antibody, human IgG1, kappa, lambda)
heavy 1: QVQLVQSGAEVKKPGSSVKVSCKASGGTFSDNDFSWVRQAPGQGLEWMGAIVAVFRTETYAQKFQDRVKITADISTRTTYMELSSLRSEDTAVYYCARRLMSAISGPGAPLLMWGQGTLVTVSSASTKGPSVFPLAPSSKSTSGGTAALGCLVKDYFPEPVTVSWNSGALTSGVHTFPAVLQSSGLYSLSSVVTVPSSSLGTQTYICNVNHKPSNTKVDKRVEPKSCDKTHTCPPCPAPELLGGPSCVFLFPPKPKDTLMISRTPEVTCVVVDVSHEDPEVKFNWYVDGVEVHNAKTKPREEQYNSTYRVVSVLTVLHQDWLNGKEYKCKVSNKALPAPIEKTISKAKGQPREPQVCTLPPSREEMTKNQVSLSCAVKGFYPSDIAVEWESNGQPENNYKTTPPVLDSDGSFFLVSKLTVDKSRWQQGNVFSCSVMHEALHNHYTQKSLSLSPGK
light 1: QSALTQPRSVSGSPGQSVTISCTGTSSDVGGYNYVSWYQQHPGKAPKLMIYDVSKRPSGVPDRFSGSKSGNTASLTISGLQAEDEADYYCSSYTSSDTLEIFGGGTKLTVLGQPKAAPSVTLFPPSSEELQANKATLVCLISDFYPGAVTVAWKADSSPVKAGVETTTPSKQSNNKYAASSYLSLTPEQWKSHRSYSCQVTHEGSTVEKTVAPTECS
heavy 2: QVQLVQSGAEVKKPGASVKVSCKASGYTFTDYYIHWVRQATGQGLEWMGWMNPNSGNTGYAQKFQGRVTMTRDTSISTAYMELSSLRSEDTAVYYCARGQGYTHSWGQGTMVTVSSASTKGPSVCPLAPSSKSTSGGTAALGCLVKDYFPEPVTVSWNSGALTSGVHTFPAVLQSSGLYSLSSVVTVPSSSLGTQTYICNVNHKPSNTKVDKRVEPKSVDKTHTCPPCPAPELLGGPSCVFLFPPKPKDTLMISRTPEVTCVVVDVSHEDPEVKFNWYVDGVEVHNAKTKPREEQYNSTYRVVSVLTVLHQDWLNGKEYKCKVSNKALPAPIEKTISKAKGQPREPQVYTLPPCREEMTKNQVSLWCLVKGFYPSDIAVEWESNGQPENNYKTTPPVLDSDGSFFLYSKLTVDKSRWQQGNVFSCSVMHEALHNHYTQKSLSLSPG
light 2: DIQMTQSPSTLSASVGDRVTITCRASEGIYHWLAWYQQKPGKAPKLLIYKASSLASGVPSRFSGSGSGTEFTLTISSLQPDDFATYYCQQYSNYPPTFGGGTKLEIKRTVAAPSVFIFPPCDEQLKSGTASVVCLLNNFYPREAKVQWKVDNALQSGNSQESVTEQDSKDSTYSLSSTLTLSKADYEKHKVYACEVTHQGLSSPVTKSFNRGEV
notes: Labelled with AlexaFluor-647 in the microscopy experiments; also called RAA22/B09-Maia; bispecific EGFR/cMET DuetMAb

Assays:
[1] = target: T2, Human EGFR (recombinant, soluble monomeric) (human, UniProt P00533 25-645); assay: biolayer interferometry (Octet), antibody bound to cMET captured on NI-NTA sensors, then human EGFR
T2 construct: also called EGFR antigen; recombinant human EGFR

HER2 = target: T3, HER2 (Homo sapiens (Human), UniProt P04626 23-652); assay: ELISA, antigen coated at 1 ug/mL, anti-human Fab-HRP detection, A450
T3 construct: also called EGFR HER family protein HER2

HER4 = target: T1, HER4; assay: as above
[2] = target: T4, Cynomolgus monkey cMET (recombinant, soluble monomeric) (cynomolgus monkey, UniProt A0M8R7 25-932 (Papio anubis entry)); assay: SPR (Biacore T200), antibody captured on anti-human IgG, soluble monomeric antigen as analyte, 25 C
T4 construct: also called cyno c-Met
T4 sequence (A0M8R7 25-932 S170N/I621T): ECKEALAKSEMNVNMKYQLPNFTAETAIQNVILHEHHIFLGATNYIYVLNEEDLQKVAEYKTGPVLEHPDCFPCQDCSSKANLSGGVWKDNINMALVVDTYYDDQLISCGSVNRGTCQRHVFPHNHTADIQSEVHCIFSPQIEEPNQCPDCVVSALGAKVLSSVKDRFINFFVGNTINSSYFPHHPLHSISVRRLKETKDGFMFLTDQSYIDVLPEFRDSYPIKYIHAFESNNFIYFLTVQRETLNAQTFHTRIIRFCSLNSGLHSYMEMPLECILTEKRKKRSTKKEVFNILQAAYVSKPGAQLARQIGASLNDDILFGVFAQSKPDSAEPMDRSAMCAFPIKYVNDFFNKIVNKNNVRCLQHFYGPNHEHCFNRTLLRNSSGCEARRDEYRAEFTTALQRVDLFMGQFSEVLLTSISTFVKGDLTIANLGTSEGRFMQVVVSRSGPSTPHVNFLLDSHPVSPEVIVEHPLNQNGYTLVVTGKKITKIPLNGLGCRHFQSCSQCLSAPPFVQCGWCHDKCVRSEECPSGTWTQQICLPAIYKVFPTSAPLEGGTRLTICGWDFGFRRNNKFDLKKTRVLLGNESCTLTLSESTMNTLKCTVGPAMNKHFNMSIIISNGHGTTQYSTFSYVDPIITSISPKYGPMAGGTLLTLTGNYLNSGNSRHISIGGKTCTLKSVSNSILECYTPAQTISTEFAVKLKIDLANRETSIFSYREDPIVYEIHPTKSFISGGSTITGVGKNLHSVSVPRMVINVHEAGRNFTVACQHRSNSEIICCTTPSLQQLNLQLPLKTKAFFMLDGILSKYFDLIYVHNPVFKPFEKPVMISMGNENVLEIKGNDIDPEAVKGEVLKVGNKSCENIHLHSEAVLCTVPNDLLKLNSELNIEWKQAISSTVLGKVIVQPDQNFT
Method: (§1) Mouse anti-human IgG was immobilized on a CM4 sensor chip with a final surface density of ˜2000 resonance units (RUs). A reference flow cell surface was also prepared on this sensor chip using identical immobilization protocol. Test and control article antibodies were prepared at 5-20 nM in instrument buffer (HBS-EP buffer; 0.01M HEPES, pH 7.4, 0.15M NaCl, 3 mM EDTA, and 0.005% P-20), along with 3-fold serial dilutions of purified EGFR (0.27-200 nM human, 0.4-900 nM cyno, and 4-1000 nM murine) or cMET proteins (0.27 to 66 nM human and 0.27-22 nM cyno) in instrument buffer. A sequential approach was utilized for kinetic measurements. Antibodies were first injected over the capture surface, at a flow rate of 10 μL/minute. Once the binding of the captured antibody stabilized, a single concentration of the analyte was injected over both capture and reference surfaces, at a flow rate of 75 μL/minute. The resulting binding response curves yielded the association phase data. Following the injection of analyte, the flow was then switched back to instrument buffer for 15 minutes to permit the collection of dissociation phase data, followed by a 1-minute pulse of 10 mM glycine, pH 1.5, to regenerate the antibody-captured surface on the chip. Binding responses against test and control article antibodies were recorded from duplicate injections of each concentration of analyte. In addition, several buffer injections were interspersed throughout the injection series. Select buffer injections were used along with the reference cell responses to correct the raw data sets for injection artifacts and/or nonspecific binding interactions, commonly referred to as “double referencing”. Corrected binding data were globally fit to a 1:1 binding model (Biacore T200 Evaluation software 2.0, GE Healthcare, Pittsburgh, PA).
(§2) Kinetic measurements to soluble monomeric forms of EGFR and cMET were performed using a BIACore instrument.

[3] = target: T5, Human cMET (recombinant, soluble monomeric) (human, UniProt P08581 25-932); assay: as above
T5 construct: also called His-tagged cMET antigen
T5 sequence (P08581 25-932): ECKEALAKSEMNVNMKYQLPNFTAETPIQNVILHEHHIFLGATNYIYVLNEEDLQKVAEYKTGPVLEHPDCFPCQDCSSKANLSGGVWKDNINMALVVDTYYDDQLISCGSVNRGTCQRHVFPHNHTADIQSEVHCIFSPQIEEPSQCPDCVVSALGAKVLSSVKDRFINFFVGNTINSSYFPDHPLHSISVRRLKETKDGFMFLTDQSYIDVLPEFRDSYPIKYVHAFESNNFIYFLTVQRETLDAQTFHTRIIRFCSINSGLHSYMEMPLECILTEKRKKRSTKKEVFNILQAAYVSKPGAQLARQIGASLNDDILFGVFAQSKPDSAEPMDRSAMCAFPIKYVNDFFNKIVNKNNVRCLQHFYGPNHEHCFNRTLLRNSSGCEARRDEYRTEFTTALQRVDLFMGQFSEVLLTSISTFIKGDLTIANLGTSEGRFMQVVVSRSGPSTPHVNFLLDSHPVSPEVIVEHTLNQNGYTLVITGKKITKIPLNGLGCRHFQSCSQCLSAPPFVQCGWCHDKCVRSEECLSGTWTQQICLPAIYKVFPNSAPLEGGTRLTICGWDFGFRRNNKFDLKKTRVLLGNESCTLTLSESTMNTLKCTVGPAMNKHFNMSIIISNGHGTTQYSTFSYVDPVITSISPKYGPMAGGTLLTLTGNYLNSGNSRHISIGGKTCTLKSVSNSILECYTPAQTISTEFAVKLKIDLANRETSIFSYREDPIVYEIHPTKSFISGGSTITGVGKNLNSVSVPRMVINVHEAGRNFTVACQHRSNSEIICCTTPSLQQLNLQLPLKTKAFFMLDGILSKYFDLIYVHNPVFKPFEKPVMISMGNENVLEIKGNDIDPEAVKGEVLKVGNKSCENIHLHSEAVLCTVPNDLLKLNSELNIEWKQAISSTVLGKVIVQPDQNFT
Method: as §1, §2

HER3 = target: T6, HER3 (Homo sapiens (Human), UniProt P21860 20-643); assay: ELISA, antigen coated at 1 ug/mL, anti-human Fab-HRP detection, A450
T6 construct: also called EGFR HER family protein HER3

Mouse cMET (recombinant) = Mouse cMET (recombinant) (mouse, UniProt P16056 25-931, limits assumed); assay: as above
Sequence of Mouse cMET (recombinant) (P16056 25-931 limits assumed): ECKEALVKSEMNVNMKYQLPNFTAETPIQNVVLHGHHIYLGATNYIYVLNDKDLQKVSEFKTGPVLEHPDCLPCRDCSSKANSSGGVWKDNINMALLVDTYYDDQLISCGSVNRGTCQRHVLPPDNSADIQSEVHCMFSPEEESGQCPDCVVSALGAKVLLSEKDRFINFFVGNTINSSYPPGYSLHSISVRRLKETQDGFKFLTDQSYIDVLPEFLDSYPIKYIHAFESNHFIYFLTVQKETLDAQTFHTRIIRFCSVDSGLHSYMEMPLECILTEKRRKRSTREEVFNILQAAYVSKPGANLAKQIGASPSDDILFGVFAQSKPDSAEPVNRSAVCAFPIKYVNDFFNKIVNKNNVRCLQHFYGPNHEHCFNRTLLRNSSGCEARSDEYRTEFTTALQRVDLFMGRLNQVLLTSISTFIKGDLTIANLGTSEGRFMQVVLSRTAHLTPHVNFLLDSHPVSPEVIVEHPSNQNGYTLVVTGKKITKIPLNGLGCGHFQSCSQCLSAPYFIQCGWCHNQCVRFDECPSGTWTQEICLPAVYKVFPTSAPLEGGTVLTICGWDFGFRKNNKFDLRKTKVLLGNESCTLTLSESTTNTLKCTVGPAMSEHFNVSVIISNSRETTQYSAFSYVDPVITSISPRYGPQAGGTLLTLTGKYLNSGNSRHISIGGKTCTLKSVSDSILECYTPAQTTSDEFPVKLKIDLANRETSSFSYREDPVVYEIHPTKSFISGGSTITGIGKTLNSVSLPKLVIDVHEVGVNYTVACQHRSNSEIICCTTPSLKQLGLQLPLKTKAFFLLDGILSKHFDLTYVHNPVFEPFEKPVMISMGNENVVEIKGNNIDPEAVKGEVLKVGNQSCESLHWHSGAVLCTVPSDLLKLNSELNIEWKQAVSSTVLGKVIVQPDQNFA
Method: (§3) Specificity for EGFR and cMET species paralogs and closely related family members was determined by ELISA. Briefly, antigen solutions were prepared in PBS at 1 μg/mL and 50 microliters was coated onto half area ELISA assay plates. Plates were washed and blocked with 1% BSA in PBS containing 0.005% Tween-20 (PBS-T) for one hour at room temperature. […] Wells were incubated with 50 microliters of the indicated primary antibodies diluted in PBS-T in a 1:3 dilution series, starting at 10 μg/mL and ending at 0.002 ug/mL, except for the HER4 binding mAb control, MAB1131, for which the series started at 1 μg/mL. The wells were washed 4 times in PBS-T, then 50 μl of goat anti-human Fab HRP-labeled secondary antibody, diluted 1:5000 in PBS-T, was added to each well and incubated for one hour at room temperature. […] 50 microliters of TMB stop solution was added to all wells and the absorbance was read at 450 nm on a SpectraMax M5 microplate reader. Data were analyzed in the SoftMax Pro 5 software and plotted using GraphPad Prism 7 graphing software.
(§4) To determine the species cross reactivity, ELISA assays were carried out as described above.

[4] = target: T7, Mouse EGFR (recombinant, soluble monomeric) (mouse, UniProt Q01279 25-647); assay: as above
T7 construct: also called murine EGFR
Method: as §3, §4

[5] = target: T8, Cynomolgus monkey EGFR (recombinant, soluble monomeric) (cynomolgus monkey, UniProt P55245 25-645 (rhesus entry)); assay: as above
T8 construct: also called cyno EGFR
Method: as §3, §4

[6] = target: EGFR and c-MET co-expressed on HCC827 cells; assay: confocal fluorescence microscopy, AF647-labelled antibody pre-bound to HCC827 cells, T=0
[7] = target: EGFR and c-MET co-expressed on NCI-H1975 cells; assay: confocal fluorescence microscopy, AF647-labelled antibody pre-bound to H1975 cells, T=0
[8] = target: T2, Human EGFR (recombinant, soluble …); assay: SPR (Biacore T200), antibody captured on anti-human IgG, soluble monomeric antigen as analyte, 25 C
Method: as §1, §2

[9] = target: T7, Mouse EGFR (recombinant, soluble …); assay: as above
Method: as §1, §2

[10] = target: T8, Cynomolgus monkey EGFR (recombinant, …); assay: as above
Method: as §1, §2

[11] = target: EGFR and c-MET co-expressed on HCC827 cells; assay: confocal fluorescence microscopy, AF647-labelled antibody pre-bound to cells, T=0

Binder | binding result (HER2) | binding result (HER4) | Kd [2] [nM] | koff [2] [s⁻¹] | kon [2] [M⁻¹ s⁻¹] | Kd [3] [nM] | koff [3] [s⁻¹] | kon [3] [M⁻¹ s⁻¹] | binding result (HER3) | binding result (Mouse cMET (recombinant)) | further results
B1 | no binding (tested: 10 ug/ml) | no binding (tested: 10 ug/ml) | 1.9 | 0.00194 | 1.04e+06 | 1.6 | 0.000882 | 563000 | no binding (tested: 10 ug/ml) | no binding (tested: 10 ug/ml) | binding result [1]: no binding (tested: 500 nM EGFR); binding result [4]: no binding (tested: 10 ug/ml); binding result [5]: no binding (tested: 10 ug/ml)
B2 | no binding (tested: 10 ug/ml) | no binding (tested: 10 ug/ml) | 2.2 | 0.00212 | 974000 | 2.2 | 0.000986 | 443000 | no binding (tested: 10 ug/ml) | no binding (tested: 10 ug/ml) | MFI [6]: 3.1e+07 MFI; MFI [7]: 3.5e+06 MFI; Kd [8]: 45 nM; koff [8]: 0.00201 s⁻¹; kon [8]: 44700 M⁻¹ s⁻¹; Kd [9]: 575 nM; koff [9]: 0.0206 s⁻¹; kon [9]: 35400 M⁻¹ s⁻¹; Kd [10]: 197 nM; koff [10]: 0.00548 s⁻¹; kon [10]: 27800 M⁻¹ s⁻¹; fold higher binding than on H1975 cells [11]: 8.9 fold
